Measurements reported in patent US20150064731A1 (PROMEGA, published 2015).

Molecular target: the molecule itself
Test: gel filtration chromatography (Superdex 200 5/150 GL) of the purified protein; self-association
Text: Gel filtration analysis was used to verify the expected molecular weight of the purified OgLuc proteins based on the theoretical values and consequently to determine their oligomeric state. A comparison between the relative hydrodynamic volume of the OgLuc variants C1+A4E and 9B8 was made by gel filtration chromatography. For this analysis, the nucleotide sequence for the OgLuc variants, C1+A4E and 9B8, were cloned into a HQ-Tagged Flexi® Vector (Promega Corp.) to create a HQHQHQ (SEQ ID NO: 580) N-terminally tagged protein that was overexpressed in E. coli KRX cells. The overexpressed proteins were purified using the HisLink™ Protein Purification System (Promega Corp.) according to manufacturer's instructions. Samples of each individual standard and sample protein were analyzed by gel filtration chromatography, which was performed at 24° C. on an Agilent 1200 HPLC, using a Superdex 200 5/150 GL column (GE Healthcare) with a flow rate of 0.25 mL/min (FIGS. 43A-B). The mobile phase (i.e., running buffer) consisted of 50 mM Tris and 150 mM NaCl, pH 7.5. Protein elution was monitored at 214 and 280 nm. A standard calibration curve was generated using: 1) Ovalbumin, 43 kDa (GE Healthcare), 2) Carbonic Anhydrase, 29 kDa (Sigma) and 3) Myoglobin, 17 kDa (Horse Heart, Sigma). The molecular weights of the purified proteins were calculated directly from the calibration curve.

B1: OgLuc variant 9B8, HQHQHQ N-terminally tagged (enzyme)
chain: HQHQHQFTLEDFVGDWRQTAGYNLDQVLEQGGLSSLFQKLGVSVTPIQKIVLSGENGLKIDIHVIIPYEGLSGYQMGQIEKIFKVVYPVDDHHFKVILHYGTLVIDGVTPNMIDYFGRPYEGIAVFDGKKITVTGTLWNGNKIIDERLINPDGSLLFRVTINGVTGWRLCERILA
notes: Overexpressed in E. coli KRX and purified with the HisLink Protein Purification System for gel filtration
  binding result: no binding
